Measurements from patent publication US12139520B2 (priority 2020, dated 2024).
Substitutions are numbered along the chain they refer to. One block for each binder: values may come before it. Numbered stars: 1 amine (or outer) side, 2 acyl side, 3 side chain; on linkers, the order of the positions; unused ones are H or OH. Bridge positions count the residues as written; N and C are the ends. Square brackets hold non-standard residues; d marks the D form. Ends that are not written are not given here. * marks the point of attachment. C20 diacid = O=C(O)CCCCCCCCCCCCCCCCCCC(=O)*; γGlu = O=C(O)[C@H](CCC(=O)[*:2])N[*:1]; Hyp = O=C(O)[C@@H]1C[C@@H](O)CN1; Cit = NC(=O)NCCC[C@H](N)C(=O)O

Columns and labels:
hAM1R = hAM1R (human, UniProt Q16602); assay: cell-based or functional assay
hAMY3R = molecular target: T1, hAMY3R (human, UniProt P30988); assay: cell-based or functional assay
T1 sequence 1: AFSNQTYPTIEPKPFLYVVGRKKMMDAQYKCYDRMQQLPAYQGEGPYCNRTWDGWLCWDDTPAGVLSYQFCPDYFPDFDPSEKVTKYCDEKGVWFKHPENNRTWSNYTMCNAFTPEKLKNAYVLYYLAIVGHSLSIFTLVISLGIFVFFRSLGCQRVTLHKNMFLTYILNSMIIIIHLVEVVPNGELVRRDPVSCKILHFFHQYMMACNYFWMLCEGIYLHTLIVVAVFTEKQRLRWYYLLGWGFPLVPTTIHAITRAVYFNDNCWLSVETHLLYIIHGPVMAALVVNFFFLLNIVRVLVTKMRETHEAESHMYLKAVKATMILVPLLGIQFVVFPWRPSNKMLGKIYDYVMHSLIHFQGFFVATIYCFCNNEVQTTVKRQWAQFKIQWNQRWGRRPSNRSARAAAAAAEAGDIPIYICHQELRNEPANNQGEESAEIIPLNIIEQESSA
T1 sequence 2: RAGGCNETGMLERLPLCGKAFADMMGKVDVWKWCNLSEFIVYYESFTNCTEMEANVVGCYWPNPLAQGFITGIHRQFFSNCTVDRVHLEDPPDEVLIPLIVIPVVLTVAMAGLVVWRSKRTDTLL

B1: SEQ ID NO: 238 (peptide)
peptide: GCRTGTCTVQRLAHQIYQFTNKDKDNVAPRSKISPQF[Hyp]-NH2
modifications: disulfide 2-7 (inferred); ends not checked
- hAM1R EC50 (cAMP) (hAM1R): > 5000 nM
- hAMY3R EC50 (cAMP) (hAMY3R): 0.235 nM

B2: SEQ ID NO: 233 (peptide)
peptide: KCNTATCTVQRLAEQIYQFTDKDKDNVAPPTNVGSNG[Hyp]-NH2
modifications: disulfide 2-7 (inferred); not fully specified (N-terminus); ends not checked; also: N-terminal Lys carries two C20DA-OEG-γGlu-OEG arms ((...)2-K)
- hAM1R EC50 (cAMP) (hAM1R): > 5000 nM
- hAMY3R EC50 (cAMP) (hAMY3R): 0.22 nM

B3: SEQ ID NO: 231 (peptide)
peptide: {C20 diacid-γGlu}-KCNTYTCTVQRLAHQIYQFTDKDKDNVAPPTNVGSNG[Hyp]-NH2
modifications: disulfide 2-7 (inferred); ends not checked
- hAM1R EC50 (cAMP) (hAM1R): > 5000 nM
- hAMY3R EC50 (cAMP) (hAMY3R): 0.209 nM

B4: SEQ ID NO: 232 (peptide)
peptide: GCRTGTCTVQRLAHQIYQFTNKDKDNVAPRSKISPQQ[Hyp]-NH2
modifications: disulfide 2-7 (inferred); ends not checked
- hAM1R EC50 (cAMP) (hAM1R): > 5000 nM
- hAMY3R EC50 (cAMP) (hAMY3R): 0.213 nM

B5: SEQ ID NO: 240 (peptide)
peptide: GCRFGTCTVQRLAHQIYQFTDKDKDNVAPSSKISPQT[Hyp]-NH2
modifications: disulfide 2-7 (inferred); ends not checked
- hAM1R EC50 (cAMP) (hAM1R): > 5000 nM
- hAMY3R EC50 (cAMP) (hAMY3R): 0.24 nM

B11: SEQ ID NO: 3 (peptide)
peptide: KCNFATCTVQRLAHQIYQFTDKDKDNVAPRTKVGSNG[Hyp]-NH2
modifications: disulfide 2-7 (inferred); ends not checked
- hAM1R EC50 (cAMP) (hAM1R): 124 nM
- hAMY3R EC50 (cAMP) (hAMY3R): 0.006 nM

B12: SEQ ID NO: 24 (peptide)
peptide: KCNTATCTVQRLAHQIYQFTAKDKDNVAPPTNVGSNG[Hyp]-NH2
modifications: disulfide 2-7 (inferred); ends not checked
- hAM1R EC50 (cAMP) (hAM1R): > 5000 nM
- hAMY3R EC50 (cAMP) (hAMY3R): 0.008 nM

B13: SEQ ID NO: 25 (peptide)
peptide: KCNTATCTVQRLAHQIYQFTDKDADNVAPPTNVGSNG[Hyp]-NH2
modifications: disulfide 2-7 (inferred); ends not checked
- hAM1R EC50 (cAMP) (hAM1R): > 5000 nM
- hAMY3R EC50 (cAMP) (hAMY3R): 0.008 nM

B15: SEQ ID NO: 234 (peptide)
peptide: KCNTATCATQRLANFLVQFTDKDKDNVAPRSKISPQGY
- hAM1R EC50 (cAMP) (hAM1R): > 5000 nM
- hAMY3R EC50 (cAMP) (hAMY3R): 0.227 nM

B17: SEQ ID NO: 230 (peptide)
peptide: GCRTGTCTVQRLAHQIYQFTDKFKDNVAPRSKISPQTY
- hAM1R EC50 (cAMP) (hAM1R): > 5000 nM
- hAMY3R EC50 (cAMP) (hAMY3R): 0.208 nM

B18: SEQ ID NO: 237 (peptide)
peptide: B17 peptide with D21N, F23D, Y38M
- hAM1R EC50 (cAMP) (hAM1R): 4250 nM
- hAMY3R EC50 (cAMP) (hAMY3R): 0.235 nM

B19: SEQ ID NO: 241 (peptide)
peptide: B17 peptide with Y38A
- hAM1R EC50 (cAMP) (hAM1R): 2290 nM
- hAMY3R EC50 (cAMP) (hAMY3R): 0.242 nM

B21: SEQ ID NO: 235 (peptide)
peptide: B17 peptide with Y38P
- hAM1R EC50 (cAMP) (hAM1R): 1420 nM
- hAMY3R EC50 (cAMP) (hAMY3R): 0.233 nM

B22: SEQ ID NO: 239 (peptide)
peptide: B17 peptide with Y38F
- hAM1R EC50 (cAMP) (hAM1R): > 5000 nM
- hAMY3R EC50 (cAMP) (hAMY3R): 0.236 nM

B23: SEQ ID NO: 236 (peptide)
peptide: GCRTGTCTVQRLAHQIYQFTDKFKDNVAPRSKISPQM[Hyp]-NH2
modifications: disulfide 2-7 (inferred); ends not checked
- hAM1R EC50 (cAMP) (hAM1R): 2240 nM
- hAMY3R EC50 (cAMP) (hAMY3R): 0.234 nM

Continued, values first:

- hAM1R EC50 (cAMP) (hAM1R): > 5000 nM
- hAMY3R EC50 (cAMP) (hAMY3R): 0.006 nM
B6: SEQ ID NO: 249 (peptide)
peptide: KCNTATCTVQ[Cit]LAHQIYQFADKDKDNVAPPTNVGSNG[Hyp]-NH2
modifications: disulfide 2-7 (inferred); ends not checked

- hAM1R EC50 (cAMP) (hAM1R): > 5000 nM
- hAMY3R EC50 (cAMP) (hAMY3R): 0.004 nM
B7: SEQ ID NO: 253 (peptide)
peptide: KCNTATCTVQ[Cit]LAHQIYQFTKDKDNVAPPTNVGSNG[Hyp]-NH2
modifications: disulfide 2-7 (inferred); ends not checked

- hAM1R EC50 (cAMP) (hAM1R): > 5000 nM
- hAMY3R EC50 (cAMP) (hAMY3R): 0.004 nM
B8: SEQ ID NO: 247 (peptide)
peptide: KCNTSTCTVA[Cit]LADQITQFSDKDKANVSPPTEVGPNS[Hyp]-NH2
modifications: disulfide 2-7 (inferred); ends not checked

- hAM1R EC50 (cAMP) (hAM1R): 3590 nM
- hAMY3R EC50 (cAMP) (hAMY3R): 0.027 nM
B9: SEQ ID NO: 248 (peptide)
peptide: KCNTATCTVQ[Cit]LAHQIYQFTDKDKDNVAPRTKVGSNG[Hyp]-NH2
modifications: disulfide 2-7 (inferred); ends not checked

- hAM1R EC50 (cAMP) (hAM1R): > 5000 nM
- hAMY3R EC50 (cAMP) (hAMY3R): 0.006 nM
B10: SEQ ID NO: 244 (peptide)
peptide: KCNTSTCTVA[Cit]LADQITQFSNKDKAQVSPPTEVGPNS[Hyp]-NH2
modifications: disulfide 2-7 (inferred); ends not checked

- hAM1R EC50 (cAMP) (hAM1R): 3340 nM
- hAMY3R EC50 (cAMP) (hAMY3R): 0.018 nM
B14: SEQ ID NO: 243 (peptide)
peptide: KCNTATCTVQ[Cit]LAAQIYQFTDKDKDNVAPPTNVGSNG[Hyp]-NH2
modifications: disulfide 2-7 (inferred); ends not checked

- hAM1R EC50 (cAMP) (hAM1R): > 5000 nM
- hAMY3R EC50 (cAMP) (hAMY3R): 0.01 nM
B16: SEQ ID NO: 246 (peptide)
peptide: KCNTATCTVQ[Cit]LAHQIAQFTDKDKDNVAPPTNVGSNG[Hyp]-NH2
modifications: disulfide 2-7 (inferred); ends not checked

- hAM1R EC50 (cAMP) (hAM1R): > 5000 nM
- hAMY3R EC50 (cAMP) (hAMY3R): 0.248 nM
B20: SEQ ID NO: 242 (peptide)
peptide: B17 peptide with D21N, F23D, Y38R

- hAM1R EC50 (cAMP) (hAM1R): > 5000 nM
- hAMY3R EC50 (cAMP) (hAMY3R): 0.011 nM
B24: SEQ ID NO: 250 (peptide)
peptide: KCNTATCTVQ[Cit]LAHQIYQFTDKDADNVAPPTNVGSNG[Hyp]-NH2
modifications: disulfide 2-7 (inferred); ends not checked

- hAM1R EC50 (cAMP) (hAM1R): > 5000 nM
- hAMY3R EC50 (cAMP) (hAMY3R): 0.017 nM
B25: SEQ ID NO: 245 (peptide)
peptide: RCNASTCTVN[Cit]LADQITQFSNKDKAQVSPPTEVGPNS[Hyp]-NH2
modifications: disulfide 2-7 (inferred); ends not checked

- hAM1R EC50 (cAMP) (hAM1R): > 5000 nM
- hAMY3R EC50 (cAMP) (hAMY3R): 0.006 nM
B26: SEQ ID NO: 252 (peptide)
peptide: KCNTATCTVQ[Cit]LAHQIYQFTDKDKDNVAPATNVGSNG[Hyp]-NH2
modifications: disulfide 2-7 (inferred); ends not checked

- hAM1R EC50 (cAMP) (hAM1R): > 5000 nM
- hAMY3R EC50 (cAMP) (hAMY3R): 0.006 nM
B27: SEQ ID NO: 251 (peptide)
peptide: KCNTATCTVQ[Cit]LAHQIYQFTDKDKDNAAPPTNVGSNG[Hyp]-NH2
modifications: disulfide 2-7 (inferred); ends not checked
